B1: MinE^I24N*-h (domain or fragment, E. coli, UniProt P0A734 12-88, looked up)
chain: KNTANIAKERLQNIVAERRRSDAEPHYLPQLRKDILEVICKYVQIDPEMVTVQLEQKDGDISILELNVTLPEAEELK
B2: MinE^21-88 (domain or fragment, E. coli, UniProt P0A734 21-88, looked up)
chain: RLQIIVAERRRSDAEPHYLPQLRKDILEVICKYVQIDPEMVTVQLEQKDGDISILELNVTLPEAEELK

Tests used:
crystal structure = target: the molecule itself; test: crystal structure
SEC = target: the molecule itself; test: SEC

Protein | binding result (crystal structure) | binding result (SEC)
B1 | binds | –
B2 | – | binds

— PMC3155264 (Cell, 2011)
